What was measured:
Assay in all cases: EMSA
[1] = biological target: T1, RelB;RelG (Mycobacterium tuberculosis H37Rv;Mycobacterium tuberculosis H37Rv) (UniProt O50462+O33348)
T1 sequence 1: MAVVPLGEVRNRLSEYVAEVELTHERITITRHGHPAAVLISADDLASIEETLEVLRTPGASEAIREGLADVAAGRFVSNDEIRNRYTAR
T1 sequence 2: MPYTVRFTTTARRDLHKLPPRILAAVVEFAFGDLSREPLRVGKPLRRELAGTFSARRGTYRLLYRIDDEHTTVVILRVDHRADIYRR

[2] = biological target: T2, RelE (Mycobacterium tuberculosis H37Rv) (UniProt O50461)
T2 sequence: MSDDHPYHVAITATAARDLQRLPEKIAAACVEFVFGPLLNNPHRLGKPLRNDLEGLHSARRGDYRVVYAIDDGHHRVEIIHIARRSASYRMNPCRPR

[3] = biological target: RelB;RelK (Mycobacterium tuberculosis H37Rv;Mycobacterium tuberculosis H37Rv) (UniProt O50462+P9WF09)
[4] = biological target: T3, RelB;RelE (Mycobacterium tuberculosis H37Rv;Mycobacterium tuberculosis H37Rv) (UniProt O50462+O50461)
T3 sequence 1: T1 sequence 1
T3 sequence 2: T2 sequence

[5] = biological target: T4, RelB (Mycobacterium tuberculosis H37Rv) (UniProt O50462)
T4 sequence: T1 sequence 1

[6] = biological target: RelK (Mycobacterium tuberculosis H37Rv) (UniProt P9WF09)
[7] = biological target: T5, RelF;RelG (Mycobacterium tuberculosis H37Rv;Mycobacterium tuberculosis H37Rv) (UniProt O33347+O33348)
T5 sequence 1: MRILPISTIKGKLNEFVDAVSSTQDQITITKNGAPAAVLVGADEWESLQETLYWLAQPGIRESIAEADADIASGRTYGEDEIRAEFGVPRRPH
T5 sequence 2: T1 sequence 2

[8] = biological target: T6, RelF;RelE (Mycobacterium tuberculosis H37Rv;Mycobacterium tuberculosis H37Rv) (UniProt O33347+O50461)
T6 sequence 1: T5 sequence 1
T6 sequence 2: T2 sequence

RelB;RelK (Mycobacterium tuberculosis H37Rv;Mycobacterium tuberculosis H37Rv), sequence (P9WF09 whole entry, one chain of several): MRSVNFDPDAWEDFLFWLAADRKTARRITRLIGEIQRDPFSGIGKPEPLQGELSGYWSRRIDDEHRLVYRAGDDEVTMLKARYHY
RelK (Mycobacterium tuberculosis H37Rv), sequence (P9WF09 whole entry): as the sequence (P9WF09 whole entry, one chain of several) above

ACCGTCTAGATGACAAGTTGGCCGGGATCAAGCGAATCTCGCGCCGGGCGATGTCAGCCCCGTCGTCAGGCTCGTCGAAGGTGCACGCCGTCGAACAGCAGGAGATCCTCGACGAGGCGTTCGGCTGAGTTCGCTCAGCCGAACGCTCGAGGAGACATCAAACAGCGACGAGGCGTTCGGCTCGGTAAGCCGATGCTCGGCGTACAGGGTTTAGCCATACTTTTAGCTACAATCGCGGTTATGGCTGTTGTCCCACTGGGTATA (double strand) [1247p]
binding [1]: binds | binding [2]: no binding | binding [3]: binds | binding [4]: binds | binding [5]: no binding | binding [6]: no binding

ATCTTCTAGAACACACCGAGACCGAACCGTTACGCCGAGACTAGGTCGCGAATGGAACACCACCGCGAAAATCGTGGCCAGAAATCGCAACCACGTTACGCTCGCGACCGCTCAATCGAGCAAGGCGCCGACCGCAAGCACCAGCAAACCTGAGACGCCGCGCACAAAGTGCGAAACCACTGGAAGGTGAGCCCTAATTTAGGGCTGAGCAGGACCTGTATAACGGCCTAGTATGGCGGTATGCGGATACTGCCGATTTCTATA (double strand) [2865p]
binding [7]: binds | binding [8]: binds

GGCGTTCGGCTCGGTAAGCCGATGCTCGGCGTACAGGGTTTAGCCATACTTTTAGCTACAATCGCGGTTATGGCTGTTGTCCCACTGGGTATA (double strand) [1247p3]
binding [4]: binds

TCCGAACGCCTCGTCGCTGTTTGATGTCTCCTCGAGCGTTCGGCTGAGCGAACTCAGCCGAACGCCTCGTCGAGGATCTCCTGCTGTTCGACGGCGTGCACCTTCGACGAGCCTGACGACGGGGCTGACATCGCCCGGCGCGAGATTCGCTTGATCCCGGCCAACTTGTCATCTAGACGGT (double strand) [1247p5]
binding [4]: no binding

— article PMC2871789
